Columns and labels:
Type in all cases: physicochemical
[1] = Loading of acetaminophen into keratin tablets (tablet disintegrated in water, HPLC); details: acetaminophen bound to H2O2-oxidized keratin, 500 mg tablets
Method: Evaluation of the loading of acetaminophen was accomplished by disintegrating a single tablet into a known volume of water over a one week period at room temperature. In addition, that samples were sonicated for 90 minutes prior to sampling. A sample of the solution was withdrawn and analyzed by HPLC.

[2] = Dissolution test (USP rotating paddle) of drug-loaded oxidized keratin tablets in simulated gastric fluid; details: 500 mg tablets of drug bound to H2O2-oxidized keratin, 37 C
Method: Dissolution tests are performed according to the standard United States Pharmacopoeia (USP) rotating paddle method. In this method, the volume of the dissolution medium is fixed and agitation is provided under defined conditions by the stainless steel paddle. A 1L volume of purified water or simulated gastric fluid (Lot. No. 76H9312, Sigma-Aldrich, St. Louis, Mo.) was used at 37° C.±0.5° C. The temperature of the dissolution medium was maintained at 37° C. by immersing the dissolution flask in a water bath. A cover was used on the system to avoid water loss through evaporation. […]
During the test, small volumes of sample were withdrawn at various time points, for example, every 20 minutes within the first hour (including a 0 time point) and every hour after that for 8 hours. […] High-performance liquid chromatography (HPLC) was performed on the samples and the amount released from the dosage form calculated based on a calibration curve generated from solutions with known concentrations of the compound of interest.
Tablet samples that incorporated the vasoconstrictor norephedrine were prepared by binding the drug to oxidized keratin in an ion exchange step. […] This was accomplished by dissolving a measured amount of norephedrine into ethanol, adding 5 g of oxidized keratin and heating to reflux for 2 hours, followed by stirring at room temperature for 24 hours. […]

[3] = Dissolution test (USP rotating paddle) of albumin from keratin tablets and capsules
Method: Dissolution tests are performed according to the standard United States Pharmacopoeia (USP) rotating paddle method. In this method, the volume of the dissolution medium is fixed and agitation is provided under defined conditions by the stainless steel paddle. A 1L volume of purified water or simulated gastric fluid (Lot. No. 76H9312, Sigma-Aldrich, St. Louis, Mo.) was used at 37° C.±0.5° C. The temperature of the dissolution medium was maintained at 37° C. by immersing the dissolution flask in a water bath. A cover was used on the system to avoid water loss through evaporation. After the temperature equilibrated, the samples were allowed to sink to the bottom of the vessel before rotation of the paddle. Rotation speed was kept constant at 50 rpm.
During the test, small volumes of sample were withdrawn at various time points, for example, every 20 minutes within the first hour (including a 0 time point) and every hour after that for 8 hours. Samples were taken from a precise point in the dissolution flask, halfway between the surface of the dissolution medium and the top of the rotating paddle, and not less than 10 mm from the wall of the vessel. The volume withdrawn during sampling was replaced with an equal volume of media, pre-warmed to 37° C. High-performance liquid chromatography (HPLC) was performed on the samples and the amount released from the dosage form calculated based on a calibration curve generated from solutions with known concentrations of the compound of interest.
Samples containing albumin were made in tablet and capsule forms. Tablets were prepared by co-grinding a mixture of 80/20 dry keratin absorbent powder/bovine albumin. The keratin absorbent powder was prepared as described in Section VI. B supra, and the albumin was purchased from Sigma Chemical Co., St. Louis, Mo. (Lot No. 69H1257, Fraction V, 96% purity). The solid mixture was further homogenized by shaking in a closed container. Samples of 500 mg of the powder mixture were made into tablets using a pellet press at 30,000 psi (400 mg keratin, 100 mg albumin). The dissolution profile of these tablets was measured by the rotating paddle method.
Albumin capsules were prepared by dissolving 2 g of albumin in 200 g of deionized water. The albumin solution was added to 8 g of absorbent keratin powder to form a hydrogel. The hydrogel was thoroughly mixed and poured into petri dishes. The water was removed under vacuum at room temperature. After drying for approximately 36 hours, the resulting solid was ground using a mortar and pestle. 400 mg of the ground keratin/albumin powder (320 mg keratin/80 mg albumin) was placed into each of several two-part gelatin capsules (No. 0, Eli Lilly and Co., Indianapolis, Ind.). The dissolution profile of these tablets was measured using the rotating paddle method.

Compound | loading level in keratin tablets [1] | time over which bound drug is released [2] [h] | release of albumin, water versus gastric fluid, compared with tablets ([3]; gelatin capsules (320 mg keratin/80 mg albumin, intimately mixed via hydrogel)) | amount of albumin released over an equivalent time period, capsules versus tablets ([3]; gelatin capsules, intimately mixed via hydrogel) | disintegration and release of albumin ([3]; keratin tablets (400 mg keratin, 100 mg albumin, mechanically mixed), purified water, 37 C) | equilibrium amount of albumin released, gastric fluid versus water ([3]; keratin tablets, simulated gastric fluid) | release of albumin ([3]; keratin tablets, simulated gastric fluid, 37 C)
CC(=O)Nc1ccc(O)cc1 [acetaminophen, 4-Acetaminophenol] | low | 5 |  |  |  |  | 
CC(N)C(O)c1ccccc1 (centres unmarked) [norephedrine, Phenylpropanolamine] |  | 2 |  |  |  |  | 
albumin: bovine albumin (Sigma, Fraction V, 96% purity) formulated with keratin absorbent powder as tablets or gelatin capsules |  |  | identical trend | much less material was released | almost immediate and complete | significantly lower | immediate
